Laboratory results published in patent US20050084496A1 (GOVERNMENT OF THE UNITED STATES OF AMERICA REP BY THE SECR …, published 2005).

Assays:
[1] = target: BSA (UniProt P02769 25-607); assay: ELISA, 100 ng target on plate, detected with anti-scytovirin rabbit polyclonal
[2] = target: T1, sCD4 (UniProt P01730 26-394); assay: as above
T1 construct: Printed only as sCD4 (soluble CD4)

[3] = target: T2, human serum albumin (human, UniProt P02768 25-609); assay: as above
T2 construct: also called HSA; HAS
T2 sequence (P02768 25-609 limits assumed): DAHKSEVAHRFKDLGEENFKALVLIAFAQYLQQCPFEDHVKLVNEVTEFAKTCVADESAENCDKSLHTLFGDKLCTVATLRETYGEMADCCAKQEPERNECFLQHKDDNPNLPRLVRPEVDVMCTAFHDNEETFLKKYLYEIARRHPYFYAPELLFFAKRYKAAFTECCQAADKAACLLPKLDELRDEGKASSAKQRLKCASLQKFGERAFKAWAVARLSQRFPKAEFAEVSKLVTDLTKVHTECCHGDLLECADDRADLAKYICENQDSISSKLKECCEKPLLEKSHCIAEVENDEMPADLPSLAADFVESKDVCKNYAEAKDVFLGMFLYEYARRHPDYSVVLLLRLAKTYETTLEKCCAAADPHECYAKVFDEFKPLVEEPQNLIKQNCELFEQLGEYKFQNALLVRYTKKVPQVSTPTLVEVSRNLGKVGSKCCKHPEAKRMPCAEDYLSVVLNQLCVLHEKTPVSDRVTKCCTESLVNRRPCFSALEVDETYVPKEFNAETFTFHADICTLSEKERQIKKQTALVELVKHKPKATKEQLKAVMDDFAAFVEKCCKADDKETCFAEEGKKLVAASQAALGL

[4] = target: T3, glycosylated gp120 (HIV-1SF2 gp120) (HIV-1 SF2, UniProt P03378 32-509, limits assumed, glycosylated); assay: ELISA, glycosylated and nonglycosylated HIV-1SF2 gp120 on plate, serial dilutions of scytovirin
T3 construct: domain: gp120

Chain of BSA (P02769 25-607 limits assumed): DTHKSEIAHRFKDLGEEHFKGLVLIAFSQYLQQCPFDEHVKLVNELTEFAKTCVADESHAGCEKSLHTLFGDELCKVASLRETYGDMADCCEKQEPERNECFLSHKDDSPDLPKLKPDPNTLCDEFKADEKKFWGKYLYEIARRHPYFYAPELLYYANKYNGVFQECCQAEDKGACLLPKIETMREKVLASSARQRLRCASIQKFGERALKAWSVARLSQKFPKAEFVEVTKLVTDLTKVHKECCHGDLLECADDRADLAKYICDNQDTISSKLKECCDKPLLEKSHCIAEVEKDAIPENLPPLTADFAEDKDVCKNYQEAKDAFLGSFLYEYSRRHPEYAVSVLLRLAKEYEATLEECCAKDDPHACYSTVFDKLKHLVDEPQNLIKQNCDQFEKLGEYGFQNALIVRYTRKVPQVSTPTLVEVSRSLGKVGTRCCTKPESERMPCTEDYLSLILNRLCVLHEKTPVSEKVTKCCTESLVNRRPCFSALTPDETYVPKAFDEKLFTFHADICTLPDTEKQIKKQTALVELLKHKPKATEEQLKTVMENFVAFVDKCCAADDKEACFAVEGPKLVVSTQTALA

B1: scytovirin (other)
chain: GSGPTYCWNEANNPGGPNRCSNNKQCDGARTCSSSGFCQGTSRKPDPGPKGPTYCWDEAKNPGGPNRCSNSKQCDGARTCSSSGFCQGTAGHAAA
notes: Natural protein purified from an aqueous extract of cultured Scytonema varium; It has 95 residues, weighs 9,713 Da and has five intrachain disulfides (Cys20-Cys26, Cys32-Cys38, Cys68-Cys74, Cys80-Cys86, Cys7-Cys55); also called wild-type scytovirin; natural scytovirin
binding result [1]: no binding (tested: 100 ng of scytovirin) | binding result [2]: no binding (tested: 100 ng of scytovirin) | binding result [3]: no binding (tested: 100 ng of scytovirin) | binding result [4]: binds
